What was measured:
[1] = molecular target: Avitag-RSL-His8 (RSL with biotin via the Avitag on the N-terminus and His8 on the C-terminus) (Ralstonia solanum); experiment: SEC
[2] = molecular target: His8-RSL-Avitag (RSL with poly-histidine on the N-terminus and biotin via the Avitag on the C-terminus) (Ralstonia solanum); experiment: SEC

Avitag-RSL-His8 (RSL with biotin via the Avitag on the N-terminus and His8 on the C-terminus) (natural protein)
stoichiometry N [1]: 2

His8-RSL-Avitag (RSL with poly-histidine on the N-terminus and biotin via the Avitag on the C-terminus) (natural protein)
stoichiometry N [2]: 3

Reference: publication PMC4511852
